# Patent US20100240774A1, “USE OF HYDROPHOBIN POLYPEPTIDES AS PENETRATION ENHANCERS” (BASF SE, priority 2007, published 2010)
# B1: hydrophobin B: fusion hydrophobin, SEQ ID NO: 26 from WO2007/14897; SEQ ID NO: 36 herein (yaad40-Xa-dewA-his) (protein)
# chain: MAQTGTERVKRGMAEMQKGGVIMDVINAEQAKIAEEAGAVIEGRMRFIVSLLAFTAAATATALPASAAKNAKLATSAAFAKQAEGTTCNVGSIACCNSPAETNNDSLLSGLLGAGLLNGLSGNTGSACAKASLIDQLGLLALVDHTEEGPVCKNIVACCPEGTTNCVAVDNAGAGTKAEGSHHHHHH
# modifications: fusion protein yaad40-Xa-dewA-his
# B2: hydrophobin A: fusion hydrophobin, SEQ ID NO: 20 from WO2007/14897 and herein (yaad-Xa-dewA-his) (protein)
# chain: MAQTGTERVKRGMAEMQKGGVIMDVINAEQAKIAEEAGAVAVMALERVPADIRAAGGVARMADPTIVEEVMNAVSIPVMAKARIGHIVEARVLEAMGVDYIDESEVLTPADEEFHLNKNEYTVPFVCGCRDLGEATRRIAEGASMLRTKGEPGTGNIVEAVRHMRKVNAQVRKVVAMSEDELMTEAKNLGAPYELLLQIKKDGKLPVVNFAAGGVATPADAALMMQLGADGVFVGSGIFKSDNPAKFAKAIVEATTHFTDYKLIAELSKELGTAMKGIEISNLLPEQRMQERGWRSIEGRMRFIVSLLAFTAAATATALPASAAKNAKLATSAAFAKQAEGTTCNVGSIACCNSPAETNNDSLLSGLLGAGLLNGLSGNTGSACAKASLIDQLGLLALVDHTEEGPVCKNIVACCPEGTTNCVAVDNAGAGTKAEGSHHHHHH
# modifications: basf-yaad-Xa-dewA-his fusion of Bacillus subtilis yaaD and N-terminal factor Xa proteinase cleavage site and Aspergillus nidulans hydrophobin dewA and his6
# What was measured:
# [1] = system: NHDF (normal human dermal fibroblast) cultures; test: antioxidative capacity (DCFH fluorescence after H2O2 stress) in NHDF cultures; assay type: cell-based; conditions: 24 h treatment, H2O2-induced radicals, protein concentration 0.001%, three independent runs, effect seen in two of three runs
# Excerpt: The reference substances used were vitamin E (alpha-tocopheryl acetate), vitamin C (Mg ascorbyl phosphate) and quercetin. The test cells used were normal dermal connective tissue cells (fibroblasts) since these produced good signal strengths in the evaluation method. To ascertain the antioxidative properties of the solutions, the NHDF (normal human dermal fibroblast) cultures were sown out on 48-well culture vessels and cultivated until the culture surface was completely covered. The investigations were then carried out with these random cultures. Firstly, the cultures were treated for 24 h with the test solutions. […] The plates containing the cells were inserted into a fluorescence reader and the measurement was started with an introductory phase without stress. […] Low fluorescence thus indicates high antioxidative capacity. […] The y axis here represents the oxidative stress in the cells as the fluorescence which is emitted when free radicals react with the intracellular dye DCFH. […] All fluorescence values were corrected with the protein contents of the cultures following conclusion of the measurements (ascertained with Coomassie stain). This compensates for fluctuations in the cell number, which would also cause fluctuations in the fluorescence (on account of the varying amount of dye). […]
# [2] = skin penetration of lactic acid: pH of pigskin after tape stripping; assay type: in vitro ADME, pig; conditions: for pH of the skin in the lower skin layers (after stripping) versus control without hydrophobin: hydrophobin coating and subsequent lactic acid treatment; for pH 1x stripping / pH 2x stripping / pH 3x stripping / pH without stripping: pigskin pretreated with 100 μl 0.1% hydrophobin 1.5 hours, then 15% strength lactic acid 10 minutes; for pH 1x stripping: after 1 Corneofix strip; for pH 2x stripping: after 2 Corneofix strips; for pH 3x stripping: after 3 Corneofix strips; for pH without stripping: mean of triple measurements
# Method: • 1. Preparation of a 1% strength solution of hydrophobin A and B in Millipore water Dissolution of the hydrophobin by vigorous stirring on a magnetic stirrer at 900 rpm for 45 minutes. • 2. Preparation of 1 ml of a ready-to-use hydrophobin solution: • 800 μl Millipore water +100 μl 10-fold buffer (500 mM Tris, 10 mM CaCl2, pH 8) +100 μl hydrophobin solution
# This corresponds to a 0.1% strength hydrophobin solution in 50 mM Tris 1 mM CaCl2 and pH 8
# • 1. Frozen and dehaired pigskin (not blanched) was defrosted at room temperature. Marking of the application fields measuring ca. 2 cm×2 cm Application of the following solutions (stripping): • control (without solution)
# • 2. Incubation of the solutions for 1.5 hours at RT
# In order to remove any buffer salts present, all of the application fields were rinsed with 2×500 μl of Millipore water and dabbed with a paper towel. • 3. Application of in each case 100 μl of 15% strength lactic acid to all application fields
# Incubation of the solutions for 10 minutes at room temperature
# Removal of the excess lactic acid using a paper towel
# Measurement of the pH of the pigskin on the respective application fields. Triple measurements were carried out and the mean was used. The water present after a pH measurement was dabbed off using a paper towel. A skin pH meter PH 905 from Courage & Khazaka was used.
# Removal of the uppermost loose cell layer using a Corneofix adhesive strip from Courage & Khazaka
# Renewed measurement of the pH
# Overall, a Corneofix adhesive strip was used 3 times and the pH measured thereafter.
Molecule,oxidative stress / antioxidative potential (DCFH fluorescence) [1],pH of the skin in the lower skin layers (after stripping) versus control without hydrophobin [2],pH 1x stripping [2],pH 2x stripping [2],pH 3x stripping [2],pH without stripping [2]
"CC(=O)Oc1c(C)c(C)c2c(c1C)CCC(C)(CCC[C@H](C)CCC[C@H](C)CCCC(C)C)O2 (stereo partly drawn) [Tocopheryl acetate, alpha-tocopheryl acetate]",no antioxidative potential,,,,,
B1,,lower pH,2.89,3.08,3.26,2.64
B2,,lower pH,3.08,3.39,3.63,2.62
